From the supplement of paper PMC7125110
± gives the standard error. For some assays here: Variants at the floor of the assay were thinned out.

B1: glmS ribozyme (parent)
chain: AUAAAAGCGCCAGAACUACAGAAAUGUAGUUGACGAGGAGGAGGUUUAUCGAAUUUUCGGCGGAUGCCUCCAAA

Columns and labels:
Details in all cases: with glucosamine-6-phosphate
glucosamine-6-phosphate [1] = variants of: B1; assay: kcat; higher = faster cleavage; RNA array
In short: (§1)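 Tracking of barcoded ribozyme variants used a hybridised Cy3 probe at 37 °C, after in situ transcription by E. coli RNA polymerase on sequenced MiSeq chips. The flowed solution held 40 μM to 10 mM glucosamine-6-phosphate in HEPES/KCl/Mg(OAc)2 buffer, and imaging ran over ~14 h. kobs was taken from exponential decay fits of normalised per-tile medians, and kcat and KM from weighted Michaelis–Menten fits.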

glucosamine-6-phosphate [2] = variants of: B1; assay: KM; higher = weaker cofactor use; RNA array
In short: as §1

glucosamine-6-phosphate [3] = variants of: B1; assay: self-cleavage kobs at 40 uM GlcN6P; higher = faster cleavage; RNA array
In short: as §1

glucosamine-6-phosphate [4] = variants of: B1; assay: self-cleavage kobs at 160 uM GlcN6P; higher = faster cleavage; RNA array
In short: as §1

glucosamine-6-phosphate [5] = variants of: B1; assay: self-cleavage kobs at 640 uM GlcN6P; higher = faster cleavage; RNA array
In short: as §1

glucosamine-6-phosphate [6] = variants of: B1; assay: self-cleavage kobs at 2500 uM GlcN6P; higher = faster cleavage; RNA array
In short: as §1

glucosamine-6-phosphate [7] = variants of: B1; assay: self-cleavage kobs at 10000 uM GlcN6P; higher = faster cleavage; RNA array
In short: as §1

AUAAAAGCGCCAGAACUACAGAAAUGUAGUUGACGAGGAGGAGGUUUAUCGAGUUCUCGGCGGAUGCCUCCAAA
kcat (glucosamine-6-phosphate [1]): 0.00882 ± 0.0023 s⁻¹ | KM (glucosamine-6-phosphate [2]): 2730 ± 950 µM | self-cleavage kobs at 40 uM GlcN6P (glucosamine-6-phosphate [3]): 0.000169 ± 2.5e-05 s⁻¹ | self-cleavage kobs at 160 uM GlcN6P (glucosamine-6-phosphate [4]): 0.000447 ± 0.00011 s⁻¹ | self-cleavage kobs at 640 uM GlcN6P (glucosamine-6-phosphate [5]): 0.00135 ± 0.00025 s⁻¹ | self-cleavage kobs at 2500 uM GlcN6P (glucosamine-6-phosphate [6]): 0.00428 ± 0.001 s⁻¹ | self-cleavage kobs at 10000 uM GlcN6P (glucosamine-6-phosphate [7]): 0.0073 ± 0.0011 s⁻¹

AUAAAAGCGCCAGGACUACAGAAAUGUAGUUGACGAGGAGGAGGUUUAUCGAAUUUUCGGCGGCUGCCUCCAAA
kcat (glucosamine-6-phosphate [1]): 0.000278 ± 1.8e-05 s⁻¹ | KM (glucosamine-6-phosphate [2]): 906 ± 140 µM | self-cleavage kobs at 640 uM GlcN6P (glucosamine-6-phosphate [5]): 0.000118 ± 1.4e-05 s⁻¹ | self-cleavage kobs at 2500 uM GlcN6P (glucosamine-6-phosphate [6]): 0.000217 ± 3.3e-05 s⁻¹ | self-cleavage kobs at 10000 uM GlcN6P (glucosamine-6-phosphate [7]): 0.000247 ± 3e-05 s⁻¹

AUAAAAGCGCCAGGACUACAGAAAUGUAGUUGACGAGGAGGAGGUUUAUCGAAUUUUCGCCGGAUGCCUCCAAA
kcat (glucosamine-6-phosphate [1]): 1.11e-05 ± 3.4e-06 s⁻¹

AUAAAAGCGCCAGAACUACAGAAAUGUAGUUGACGAGGAGGAGGUUGAUCGAAUUUUCGGCGGAUGCCGCCAAA
kcat (glucosamine-6-phosphate [1]): 5.3e-05 ± 8.9e-06 s⁻¹ | self-cleavage kobs at 40 uM GlcN6P (glucosamine-6-phosphate [3]): 4.11e-05 ± 9e-06 s⁻¹ | self-cleavage kobs at 160 uM GlcN6P (glucosamine-6-phosphate [4]): 5.87e-05 ± 1.3e-05 s⁻¹ | self-cleavage kobs at 640 uM GlcN6P (glucosamine-6-phosphate [5]): 7.19e-05 ± 9.1e-06 s⁻¹ | self-cleavage kobs at 2500 uM GlcN6P (glucosamine-6-phosphate [6]): 7.13e-05 ± 9.6e-06 s⁻¹ | self-cleavage kobs at 10000 uM GlcN6P (glucosamine-6-phosphate [7]): 4.09e-05 ± 5.2e-06 s⁻¹

AUAAAAGCGCCAAAACUACAGAAAUGUAGCUGACGAGGAGGAGGUUUAUCGAAUUUUCGGCGGAUGCCUCCAAA
kcat (glucosamine-6-phosphate [1]): 0.000676 ± 0.00014 s⁻¹ | KM (glucosamine-6-phosphate [2]): 2010 ± 830 µM | self-cleavage kobs at 640 uM GlcN6P (glucosamine-6-phosphate [5]): 0.000158 ± 3.2e-05 s⁻¹ | self-cleavage kobs at 2500 uM GlcN6P (glucosamine-6-phosphate [6]): 0.000511 ± 9.2e-05 s⁻¹ | self-cleavage kobs at 10000 uM GlcN6P (glucosamine-6-phosphate [7]): 0.00051 ± 9.1e-05 s⁻¹

AUAAAAGCGCCAGAACUACAGAAAUGUAGUUGACGAGGAGGAGGUUUAUCGUAUUUUCGGCGGGUGCUUCCAAA
kcat (glucosamine-6-phosphate [1]): 6.78e-05 ± 4.7e-06 s⁻¹ | KM (glucosamine-6-phosphate [2]): 741 ± 230 µM | self-cleavage kobs at 2500 uM GlcN6P (glucosamine-6-phosphate [6]): 5.62e-05 ± 2.2e-05 s⁻¹ | self-cleavage kobs at 10000 uM GlcN6P (glucosamine-6-phosphate [7]): 6.09e-05 ± 2.2e-05 s⁻¹

AUAAAAGCGCCAGUACUACAGAAAUGUAGUUGACGCGGAGGAGGUUUAUUGAAUUUUCGGCGGAUGCCUCCAAA
kcat (glucosamine-6-phosphate [1]): 1.43e-05 ± 5.6e-06 s⁻¹

AUAAAAGCGCCAGAACUACAGAAAUGUAGUUGACGAGGAGGAGGUUUAGCGAAUUUUCAGCGGAUGCCUCCAAA
kcat (glucosamine-6-phosphate [1]): < 1e-05 s⁻¹ | self-cleavage kobs at 40 uM GlcN6P (glucosamine-6-phosphate [3]): < 1e-05 s⁻¹ | self-cleavage kobs at 160 uM GlcN6P (glucosamine-6-phosphate [4]): < 1e-05 s⁻¹

AUAAAAGCGCCAGCACUACAGAAAUGUAGUUGACGAGGAGGAGGUUUAUCGAAUUUUCGGCGGACGCCUCCAAA
kcat (glucosamine-6-phosphate [1]): 8.26e-05 ± 1.1e-05 s⁻¹ | KM (glucosamine-6-phosphate [2]): 1220 ± 570 µM | self-cleavage kobs at 40 uM GlcN6P (glucosamine-6-phosphate [3]): < 1e-05 s⁻¹ | self-cleavage kobs at 640 uM GlcN6P (glucosamine-6-phosphate [5]): 3.59e-05 ± 1.4e-05 s⁻¹ | self-cleavage kobs at 2500 uM GlcN6P (glucosamine-6-phosphate [6]): 4.9e-05 ± 1.1e-05 s⁻¹ | self-cleavage kobs at 10000 uM GlcN6P (glucosamine-6-phosphate [7]): 7.7e-05 ± 1.2e-05 s⁻¹

AUAAAAGCGCCAGAACUACAGAAAUGUAGUUGACGAGGAGGAGGUUUAUCGAAUUUUCGGCGGAAGUCUCCAAA
kcat (glucosamine-6-phosphate [1]): 0.00212 ± 0.00035 s⁻¹ | KM (glucosamine-6-phosphate [2]): 1260 ± 320 µM | self-cleavage kobs at 40 uM GlcN6P (glucosamine-6-phosphate [3]): 7.1e-05 ± 8.1e-06 s⁻¹ | self-cleavage kobs at 160 uM GlcN6P (glucosamine-6-phosphate [4]): 0.00022 ± 2.8e-05 s⁻¹ | self-cleavage kobs at 640 uM GlcN6P (glucosamine-6-phosphate [5]): 0.000793 ± 8.5e-05 s⁻¹ | self-cleavage kobs at 2500 uM GlcN6P (glucosamine-6-phosphate [6]): 0.00117 ± 0.00013 s⁻¹ | self-cleavage kobs at 10000 uM GlcN6P (glucosamine-6-phosphate [7]): 0.00225 ± 0.00023 s⁻¹

AUAAAAGCGGUAGAACUACAGAAAUGUAGUUGACGAGGAGGAGGUUUAUCGAAUUUUCGGCGGAUGGCUCCAAA
kcat (glucosamine-6-phosphate [1]): 3.06e-05 ± 8.7e-06 s⁻¹ | self-cleavage kobs at 640 uM GlcN6P (glucosamine-6-phosphate [5]): 5.14e-05 ± 2.4e-05 s⁻¹

AUAAAAGCGCCAGAACUACAGAAAUGUAUUUGACGAGGAGGAAGUUUAUCGAAUUUUCGGCGGAUGCCUCCAAA
kcat (glucosamine-6-phosphate [1]): < 1e-05 s⁻¹ | self-cleavage kobs at 40 uM GlcN6P (glucosamine-6-phosphate [3]): < 1e-05 s⁻¹ | self-cleavage kobs at 160 uM GlcN6P (glucosamine-6-phosphate [4]): < 1e-05 s⁻¹

AUAAAAGCGCCAGAACUACAGAAAUGUAGUUGACGAGGAGGAGGUUUAUCUAAUUUUCGGCGGAUGCAUCCAAA
kcat (glucosamine-6-phosphate [1]): 2.77e-05 ± 5e-06 s⁻¹

AUAAAAGCGCCAGAAUUACAGAAAUGUAGUUGACGAGUAGGAGGUUUAUCGAAUUUUCGGCGGAUGCCUCUAAA
kcat (glucosamine-6-phosphate [1]): 1.14e-05 ± 2e-06 s⁻¹

AUAAAAGCGCCAGAACUACAGAAAUGUAGUUGACGAGGAUGAGGUUUAUCGAAUUUUCGGCGGAUGCCUACAAA
kcat (glucosamine-6-phosphate [1]): 0.000457 ± 7.9e-05 s⁻¹ | KM (glucosamine-6-phosphate [2]): 1360 ± 460 µM | self-cleavage kobs at 160 uM GlcN6P (glucosamine-6-phosphate [4]): 3.45e-05 ± 1.4e-05 s⁻¹ | self-cleavage kobs at 640 uM GlcN6P (glucosamine-6-phosphate [5]): 0.000149 ± 1.8e-05 s⁻¹ | self-cleavage kobs at 2500 uM GlcN6P (glucosamine-6-phosphate [6]): 0.000434 ± 7.3e-05 s⁻¹ | self-cleavage kobs at 10000 uM GlcN6P (glucosamine-6-phosphate [7]): 0.000372 ± 4.6e-05 s⁻¹

AUAAAAGCGCCAGAACUACAGAAAUGUAGUUGACGAAGAGGAGGUUUAUCGAAUGUUCGGCGGAUGCCUCCAAA
kcat (glucosamine-6-phosphate [1]): 0.0025 ± 0.0004 s⁻¹ | KM (glucosamine-6-phosphate [2]): 2980 ± 830 µM | self-cleavage kobs at 40 uM GlcN6P (glucosamine-6-phosphate [3]): 2.68e-05 ± 1.3e-05 s⁻¹ | self-cleavage kobs at 160 uM GlcN6P (glucosamine-6-phosphate [4]): 0.000204 ± 6.7e-05 s⁻¹ | self-cleavage kobs at 640 uM GlcN6P (glucosamine-6-phosphate [5]): 0.000401 ± 9.1e-05 s⁻¹ | self-cleavage kobs at 2500 uM GlcN6P (glucosamine-6-phosphate [6]): 0.00122 ± 0.0002 s⁻¹ | self-cleavage kobs at 10000 uM GlcN6P (glucosamine-6-phosphate [7]): 0.00188 ± 0.00028 s⁻¹

AUAAAAGCGCCAGAACUACAGAAAUGUAGUUGACGAGGAGGAGUUUUAUCGAAUCUUCGGCGGAUGCCUCCAAA
kcat (glucosamine-6-phosphate [1]): 9.04e-05 ± 3.7e-06 s⁻¹ | KM (glucosamine-6-phosphate [2]): 8390 ± 750 µM | self-cleavage kobs at 160 uM GlcN6P (glucosamine-6-phosphate [4]): < 1e-05 s⁻¹ | self-cleavage kobs at 10000 uM GlcN6P (glucosamine-6-phosphate [7]): 4.92e-05 ± 1.3e-05 s⁻¹

AUAAAAGCGCCAGAACUACAGAAAUGUAGUUGACGAGGAGGAGGUUUAUCGAAUUUUCGGCGGCUGCCGCCAAA
kcat (glucosamine-6-phosphate [1]): 1.56e-05 ± 5e-06 s⁻¹ | self-cleavage kobs at 40 uM GlcN6P (glucosamine-6-phosphate [3]): < 1e-05 s⁻¹

AUAAAAGCGCCAGAACUACAGAAAUGUAUUUGACGAGGAGGAGGGUUAUCGAAUUUUCGGCGGAUGCCUCCAAA
kcat (glucosamine-6-phosphate [1]): 0.000648 ± 0.00013 s⁻¹ | KM (glucosamine-6-phosphate [2]): 1660 ± 680 µM | self-cleavage kobs at 160 uM GlcN6P (glucosamine-6-phosphate [4]): 3.73e-05 ± 1.2e-05 s⁻¹ | self-cleavage kobs at 640 uM GlcN6P (glucosamine-6-phosphate [5]): 0.000217 ± 2.8e-05 s⁻¹ | self-cleavage kobs at 2500 uM GlcN6P (glucosamine-6-phosphate [6]): 0.00064 ± 0.00013 s⁻¹ | self-cleavage kobs at 10000 uM GlcN6P (glucosamine-6-phosphate [7]): 0.000522 ± 5.5e-05 s⁻¹
